In US20090018101:

Legend:
[1] = tested on: M.HhaI (DNA cytosine-C5 methyltransferase); details: natural cofactor AdoMet; R.Hin6I protection assay, 37 C; analogs 3: <4, 4: 0, 5: 7, 6: <4, 7: 29, 8: <4
[2] = tested on: M.SssI Q142A (DNA cytosine-C5 methyltransferase) Q142A (Spiroplasma sp.?); details: natural cofactor AdoMet; R.BstUI protection assay, 37 C; analogs 5: 1.2, 7: 0.6
[3] = tested on: M.BcnIB (DNA cytosine-N4 methyltransferase); details: natural cofactor AdoMet; R.BcnI protection assay, 37 C; analogs 3-5: <7, 6: 0, 7: 28, 8: 14
[4] = target: M.TaqI (DNA adenine-N6 methyltransferase) (UniProt P14385); details: natural cofactor AdoMet; R.TaqI protection assay, 60 C 4 h; analogs 3: 10, 4: <5, 5: 80, 6: 10, 7: 1280, 8: 640, 9: 640; cofactor 10: 11 u/ug (1 h)
Sequence of M.TaqI (DNA adenine-N6 methyltransferase) (P14385 whole entry): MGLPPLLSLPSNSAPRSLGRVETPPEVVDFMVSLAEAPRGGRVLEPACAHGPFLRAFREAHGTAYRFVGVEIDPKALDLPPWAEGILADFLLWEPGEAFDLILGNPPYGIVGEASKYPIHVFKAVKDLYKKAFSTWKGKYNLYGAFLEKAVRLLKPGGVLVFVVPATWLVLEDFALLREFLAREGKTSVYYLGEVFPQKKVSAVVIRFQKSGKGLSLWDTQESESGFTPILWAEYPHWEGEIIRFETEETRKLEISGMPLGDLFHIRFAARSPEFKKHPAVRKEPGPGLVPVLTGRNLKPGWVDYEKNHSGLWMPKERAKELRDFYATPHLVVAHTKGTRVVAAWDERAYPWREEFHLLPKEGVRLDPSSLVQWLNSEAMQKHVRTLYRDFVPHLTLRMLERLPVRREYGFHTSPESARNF

M.TaqI V21G V21G = details: natural cofactor AdoMet; R.TaqI protection assay; analogs 3: 5, 4: <5, 5: 640, 6: 20, 7: 80, 8: 80, 9: 2560
M.HhaI Q82A Q82A = target: T1, M.HhaI Q82A Q82A (UniProt P05102); details: natural cofactor AdoMet; R.Hin6I protection assay; analogs 3: 7, 4: 0, 5: 29, 6: <4, 7: 58, 8: <4
T1 sequence: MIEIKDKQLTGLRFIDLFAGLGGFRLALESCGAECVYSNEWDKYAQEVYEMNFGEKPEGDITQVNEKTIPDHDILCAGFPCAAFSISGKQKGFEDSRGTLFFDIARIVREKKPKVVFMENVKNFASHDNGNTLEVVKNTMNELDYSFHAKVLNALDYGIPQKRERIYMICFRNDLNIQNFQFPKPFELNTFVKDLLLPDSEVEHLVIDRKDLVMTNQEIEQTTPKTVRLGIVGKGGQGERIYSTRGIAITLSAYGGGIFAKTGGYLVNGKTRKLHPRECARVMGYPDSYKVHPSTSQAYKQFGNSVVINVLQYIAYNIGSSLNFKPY

Substance: phage lambda DNA (48502 bp)
- activity [1]: 460 u/µg
- activity [2]: 20 u/µg
- activity [3]: 444 u/µg
- activity [4]: 41000 u/µg
- activity (M.TaqI V21G V21G): 320 u/µg
- activity (M.HhaI Q82A Q82A): 115 u/µg
